Twelve molecules from US20240294650A1 (Alector, published 2024) can be followed below.

Experiment [1] addresses T1, MerTK C-terminal ECD Half-and-half chimera (human).
T1 construct: tested as culture supernatant; also called MerTK C-term half-and-half chimera; MerTK C-terminal ECD (FN1-FN2-JM) + Axl N-terminal ECD (NT-Ig1-Ig2)
T1 chain: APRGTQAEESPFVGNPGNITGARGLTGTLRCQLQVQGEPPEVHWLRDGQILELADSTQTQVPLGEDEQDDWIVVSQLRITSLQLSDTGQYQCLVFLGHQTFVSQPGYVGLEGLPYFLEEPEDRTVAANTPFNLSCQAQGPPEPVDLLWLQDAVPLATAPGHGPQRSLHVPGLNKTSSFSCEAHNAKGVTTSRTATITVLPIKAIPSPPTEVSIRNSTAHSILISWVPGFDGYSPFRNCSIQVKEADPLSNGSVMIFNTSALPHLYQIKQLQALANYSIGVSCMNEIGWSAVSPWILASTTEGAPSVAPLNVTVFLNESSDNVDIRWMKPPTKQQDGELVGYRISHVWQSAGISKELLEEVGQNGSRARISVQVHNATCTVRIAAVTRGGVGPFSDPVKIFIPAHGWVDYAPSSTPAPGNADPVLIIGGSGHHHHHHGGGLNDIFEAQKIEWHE
In words: SPR, construct supernatant over immobilised Ab. The essentials: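 Epitope domain mapping by SPR with antibody captured via amine coupling and construct supernatants as analyte (1:1 dilution, 0.5 mg/mL BSA in running buffer). Scoring relied on binding lost or gained across MerTK/Axl swaps.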

Experiment [2] concerns the target T2, recombinant cynomolgus MerTK extracellular domain (cynomolgus, UniProt Q12866 21-505 (human entry)).
T2 construct: also called cyno MerTK ECD; not shown: polyHis or TEVS/Thrombin/murine IgG2a-Fc tag
T2 chain: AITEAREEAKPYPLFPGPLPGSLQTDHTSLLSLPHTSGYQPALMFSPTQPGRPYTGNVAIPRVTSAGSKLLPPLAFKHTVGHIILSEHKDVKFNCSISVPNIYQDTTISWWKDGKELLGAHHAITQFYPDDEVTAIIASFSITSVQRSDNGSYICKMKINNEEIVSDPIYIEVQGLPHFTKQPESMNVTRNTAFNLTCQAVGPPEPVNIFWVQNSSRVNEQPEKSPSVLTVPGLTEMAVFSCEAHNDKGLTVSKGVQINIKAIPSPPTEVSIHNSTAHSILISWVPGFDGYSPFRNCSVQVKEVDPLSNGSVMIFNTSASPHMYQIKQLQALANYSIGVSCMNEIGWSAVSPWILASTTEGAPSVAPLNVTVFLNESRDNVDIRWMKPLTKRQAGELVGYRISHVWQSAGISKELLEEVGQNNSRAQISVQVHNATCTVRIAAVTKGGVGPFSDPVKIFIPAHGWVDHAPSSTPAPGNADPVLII
Description: SPR Carterra LSA, Ab immobilised; LB = low binding (below limit of measurement), KD not determined.

Substitutions are numbered along the chain they refer to.

B1: MTK-212 (antibody, human IgG1, V domains shown)
VH: QVQLQQSGPELVKPGASVKISCKASGYAFSSSWVNWVKQRPGKGLEWIGRIYPGDGDSNYNGNFKGKATLTADKSSNTAYLQLSSLTSEDSAVYFCARKSHFIYYTLDYWGQGTPVTVSS
VL: DIVMTQSHKFKSTSVGDRVSIACKASQDVGTSVAWYQQKPGKSPKLLIYWASSRHTGVPDRFTGSGSGTDFTLTISNVQSEDLTDYFCQQYSTYPYTFGGGTKLEIK
For B1, the binding result in experiment [1] is “no binding”.

B2: MTK-218 (antibody, human IgG1, V domains shown)
VH: QVQLQQSGPELVKPGTSVKISCKASGYSFTSYYIHWVKQRPGQGLDWIGWIFPGNRNTQYNEKFKGKATLTADTSSSTAYMQLSSLTSEDSAVYYCARLGLIYALDYWGQGTSVTVSS
VL: DAVMTQTPLSLPVSLGDQASISCRSSQSLENSNGHTYLHWYLQKPGQSPQLLIYRVSNRFSGVQDRFSGSGSGTDFTLKISRVEAEDLGVYFCLQVTHVPFTFGSGTKLEIK
Consider B2, for which the binding result in experiment [1] is “no binding”.

B3: MTK-226 (antibody, human IgG1, V domains shown)
VH: B2 VH with T16A, D46E, R56G, Q59K, K63N, K65R
VL: B2 VL with N31S, H35N, Q64L, K79Q
As for B3, the binding result in experiment [1] is reported as “no binding”.

B4: MTK-207 (antibody, human IgG1, V domains shown)
VH: QVQLKESGPGLVAPSQSLSITCTVSGISLTSYGVSWVRQPPGKGLEWLGIIWGDGSTNYHSALISRLSISKDNSKSQVFLKLNSLQTDDTATYYCAKGRYGNYEDWYFDVWGTGTTVTVSS
VL: DIQMTQSPASLSASVGETVTITCRASGNIHNYLAWYQQKQGKSPQLLVYNAKTLAAGVPSRFSGSGSGTQYSLKINSLQPEDFGSYYCQHFWSIPLTFGAGTKLELK
On to B4, for which, in experiment [2], the binding result is listed as “binds”.

B5: MTK-220 (antibody, V domains shown)
VH: EVQLVESGGGLVKPGGSLKLSCAASGFTFSDYGMHWVRQAPEKGLEWVAFISGGSGTIYYEDTVKGRFTISRDNAKNTLFLQMTSLRSEDTAMYYCTRGGNYFDYWGQGTTLTVSS
VL: NIMLTQSPSSLAVSAGEKVTMTCKSSQSVLYSSNQKNYLAWYQQKPGQSPKLLIYWASTRESGVPDRFTGSGSGTDFTLTISNVQAEDLAVYYCHQYFSSWTFGGGTKLEIK
For B5, the binding result in experiment [1] is “no binding”.

B6: MTK-216 (antibody, human IgG1, V domains shown)
VH: B5 VH with G53S, G56T, E61A, F80I, M93I, N101F, Y102H, F103L
VL: B5 VL with N1S, L4M, T22G, S33A, K36Q, P50L, N83S
As to B6, the binding result in experiment [2] is reported as “binds”.

B7: MTK-202 (antibody, human IgG1, V domains shown)
VH: EVQLVESGGGLVKPGGSLKLSCAASGFTFSDFGMHWVRQVPEKGLEWVAFISGGSNTIYYTDTVKGRFTISRDNAKNTLFLQMTSLRSEDTAMYYCVRNGNSFAYWGQGTLVTVSA
VL: B5 VL with L4M, T22N, V84I, V91I, S99F
B7: the binding result in experiment [1] is given as “no binding”.

B8: MTK-204 (antibody, human IgG1, V domains shown)
VH: B5 VH with F50Y, G53S, S55T, G56S, T97A, N101L, Y102L
VL: B5 VL with L4M, T22S, Y55Q, G74E, S82R, N83S
For B8, the binding result in experiment [1] was “no binding”.

B9: MTK-223 (antibody, human IgG1, V domains shown)
VH: DVQLQESGPGLVKPSQSLSLTCSVTGYSITSGYYWNWIRQFPGNKLEWMGYISYDGTNNYNPSLKNRISITRDTSENQFFLKLNSVTTEDTATYFCVRGAGYWGQGTTLTVSS
VL: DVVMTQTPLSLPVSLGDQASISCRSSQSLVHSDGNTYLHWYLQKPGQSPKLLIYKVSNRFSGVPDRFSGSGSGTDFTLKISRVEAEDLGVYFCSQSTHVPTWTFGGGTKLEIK
Consider B9, for which the binding result in experiment [1] is “no binding”.

B10: MTK-231 (antibody, human IgG1, V domains shown)
VH: B9 VH with N58Y, N61H, E76K, K82T, Y94F, F95Y, V97T, A100G, T108S, L109V
VL: DVVMTQTPLSLPVSLGDQASISCRSSQSLVHSDGNTYLHWYLQKPGQSPKLLIYKVSNRFSGVPDRFSGSGSGTDFTLKISRLEAEDLGIYFCSQTTHIPLTFGSGTKLEIK
With B10, in experiment [1], the binding result is given as “no binding”.

B11: MTK-225 (antibody, human IgG1, V domains shown)
VH: EVQLQQSGPELVKPGASVKIFCKASGYTFTAYNMDWVKQSHGKSLEWIGDINPNNGGTIYNQKFKGKATLTVDKSSSTAYMELRSLTSEDTAVYYCARRRRYGNTYYWYFDVWGTGTTVTVSS
VL: DIQMTQSPASLSVSVGETVTITCRASENIYSSLAWYQQKQGKSPQLLVYAATNLADGVPSRFSGSGSGTQFYLKINGLQSEDFGSYYCQHFWGTSYTFGGGTKLEIK
In the case of B11, in experiment [1], the binding result was “no binding”.

B12: MTK-213 (antibody, human IgG1, V domains shown)
VH: QVQLQQPGAELVKPGASVKMSCKASGYTFTSYWITWVKQRPGQGHEWIGEIYPGIGSTNYNEKFKSKATLTVDTSSRTAYMQLSSLTSEDSAVYFCARGAYTKYYFDYWGQGTTLTVSS
VL: DIVMTQSHKFMSTSVGDRVSITCKASQDVGDAVAWYQQKPGQTPKLLIYWASTRHTGVPDRFTGSGSGTDFTLTISNVQSEDLADYFCQQYSSYLMYTFGGGTKLEIK
Turning to B12, in experiment [1], the binding result is given as “no binding”.
